Measurements reported in article doi:10.1101/2024.01.05.574328.

Biological target: AcrIF25 (A. baumannii)
Test: cross-linking

Substance: AcrIF25 (natural protein)
- stoichiometry N: 2
